The target of the assay is human vitamin D nuclear receptor ligand-binding domain, hexahistidine-tagged (6xHis-VDR-LBD) (human). As to the kind of experiment: AlphaScreen or HTRF; 100 nM 6xHis-VDR-LBD on Ni2+-chelate acceptor beads, 20 nM biotinylated TIF2-3 peptide on streptavidin donor beads; increasing concentrations of 1α,25(OH)2D3 or 1α,25(OH)2-3-epi-D3 (1% DMSO); 50 mM MOPS pH 7.4, 50 mM NaF, 50 mM CHAPS, 100 µg/ml BSA. For orientation: Bead proximity is the source of the signal in Alpha formats.

Where no end group is shown, it is not given here. The star is where a group is joined. Biotin = O=C1N[C@H]2[C@H](CS[C@H]2CCCCC(=O)*)N1

1 molecule from publication PMC3069065 can be followed below.

Molecule Biotin-QEPVSPKKKENALLRYLLDKDDTKD [human TIF2-3 biotinylated peptide (TIF2 coactivator peptide bearing the 3rd LXXLL motif)] showed an EC50 of the ligand 1α,25(OH)2-3-epi-D3 for induced recruitment of the peptide of 2.5 nM and an EC50 of the ligand 1α,25(OH)2D3 for induced recruitment of the peptide of 1.2 nM.
